According to US20140004128A1:

Molecular target: recombinant human IL-18 (human) (UniProt Q14116)
Test: free IL-18 ECL immunoassay: recombinant human IL-18 captured by plate-coated Antibody 12GL, biotinylated detection antibody; rhIL-18BP titrated as competitor of the capture

recombinant IL-18BP (from UniProt O95998 31-194)
IC50 (read off the curve): 3 ng/mL
